In PMC8558838 (The Journal of Experimental Medicine, 2021):

B1: full-length mouse BTLA-EGFP, on cells [mouse] / full-length WT mouse HVEM-mCherry, on cells [mouse] (parent complex)
chain 1: EKATKRNDEECPVQLTITRNSKQSARTGELFKIQCPVKYCVHRPNVTWCKHNGTICVPLEVSPQLYTSWEENQSVPVFVLHFKPIHLSDNGSYSCSTNFNSQVINSHSVTIHVRERTQNSSEHPLITVSDIPDATNASGPSTMEERPGRTWLLYTLLPLGALLLLLACVCLLCFLKRIQGKEKKPSDLAGRDTNLVDIPASSRTNHQALPSGTGIYDNDPWSSMQDESELTISLQSERNNQGIVYASLNHCVIGRNPRQENNMQEAPTEYASICVRS
chain 2: QPSCRQEEFLVGDECCPMCNPGYHVKQVCSEHTGTVCAPCPPQTYTAHANGLSKCLPCGVCDPDMGLLTWQECSSWKDTVCRCIPGYFCENQDGSHCSTCLQHTTCPPGQRVEKRGTHDQDTVCADCLTGTFSLGGTQEECLPWTNCSAFQQEVRRGTNSTDTTCSSQVVYYVVSILLPLVIVGAGIAGFLICTRRHLHTSSVAKELEPFQEQQENTIRFPVTEVGFAETEEETASN
B2: full-length mouse LIGHT, on cells (mLIGHT-IRES-EGFP) [mouse] / full-length WT mouse HVEM-mCherry, on cells [mouse] (parent complex)
chain 1: MESVVQPSVFVVDGQTDIPFRRLEQNHRRRRCGTVQVSLALVLLLGAGLATQGWFLLRLHQRLGDIVAHLPDGGKGSWEKLIQDQRSHQANPAAHLTGANASLIGIGGPLLWETRLGLAFLRGLTYHDGALVTMEPGYYYVYSKVQLSGVGCPQGLANGLPITHGLYKRTSRYPKELELLVSRRSPCGRANSSRVWWDSSFLGGVVHLEAGEEVVVRVPGNRLVRPRDGTRSYFGAFMV
chain 2: B1 chain 2

Variants of: B1
Assay: flow cytometry, cell–cell method; read off a plot

Row | Variant | ratio to parent
1 | chain 2 H48R, chain 2 L52A | ~1.2
2 | chain 2 H48D, chain 2 L52D | ~1.1
3 | chain 2 H48D, chain 2 L52A | ~1
4 | chain 2 H48D, chain 2 L52R | ~1.4
5 | chain 2 G34D, chain 2 V36A | ~0.07
6 | chain 2 G34D, chain 2 V36D | ~0.06
7 | chain 2 G34D, chain 2 V36R | ~0.05
8 | chain 2 G34R, chain 2 V36A | ~0.06

Variants of: B1
Assay: flow cytometry, cell–cell method

Row | Variant | ratio to parent
9 | chain 2 K77A | 1.3
10 | chain 2 K77D | 1.2
11 | chain 2 G34R | 0.1
12 | chain 2 G34A | 1
13 | chain 2 G34D | 0.3
14 | chain 2 N50A | 1.1
15 | chain 2 N50D | 0.9
16 | chain 2 S30D | 0.8
17 | chain 2 S30A | 1
18 | chain 2 S30H | 0.9
19 | chain 2 S98A | 1
20 | chain 2 S98D | 1
21 | chain 2 R5D | 1.2
22 | chain 2 R5A | 0.7
23 | chain 2 L56A | 1
24 | chain 2 L56D | 1.1
25 | chain 2 H48D | 1.1

Row | Variant | ratio to parent
26 | chain 2 H48R | 1.1
27 | chain 2 A49D | 1.3
28 | chain 2 E8A | 1
29 | chain 2 E8R | 0.7
30 | chain 2 L52R | 0.9
31 | chain 2 L52D | 0.8
32 | chain 2 L52A | 1
33 | chain 2 T99D | 0.9
34 | chain 2 T99A | 1
35 | chain 2 M18A | 1.2
36 | chain 2 M18D | 1
37 | chain 2 P17A | 0.4
38 | chain 2 K26A | 0.9
39 | chain 2 K26D | 1
40 | chain 2 V36A | 1
41 | chain 2 V36D | 0.8

Variants of: B2
Assay: flow cytometry, cell–cell method

Row | Variant | ratio to parent
42 | chain 2 S30H | 1.1
43 | chain 2 S30D | 0.8
44 | chain 2 G34R | 0.6
45 | chain 2 R5A | 0.5
46 | chain 2 A49D | 1.2
47 | chain 2 L52D | 0.4
48 | chain 2 L52R | 0.4
49 | chain 2 T35A | 0.7
50 | chain 2 L56D | 0.6
51 | chain 2 S98A | 0.9
52 | chain 2 G51D | 0.4
53 | chain 2 P17A | 0.8
54 | chain 2 K26A | 1
55 | chain 2 N50D | 0.5
56 | chain 2 H96D | 0.7
57 | chain 2 H48R | 1
58 | chain 2 H48D | 0.8

Variants of: B2
Assay: flow cytometry, cell–cell method; read off a plot

Row | Variant | ratio to parent
59 | chain 2 H48R, chain 2 L52A | ~0.3
60 | chain 2 G34D, chain 2 V36R | ~1.3
61 | chain 2 G34D, chain 2 V36A | ~1.1
62 | chain 2 G34D, chain 2 V36D | ~0.87
63 | chain 2 H48A, chain 2 L52A | ~0.28
64 | chain 2 G34A, chain 2 V36D | ~1.1
65 | chain 2 H48D, chain 2 L52D | ~0.25
66 | chain 2 H48D, chain 2 L52R | ~0.37
67 | chain 2 H48D, chain 2 L52A | ~0.24
68 | chain 2 G34R, chain 2 V36A | ~1.2
